Results on two molecules are retold here after patent US20090304706A1.

The experiment has as its target human CD40 (human) (UniProt P25942). The experiment can be described thus: Biacore (SPR).
UniProt P25942, sequence (P25942 20-193 limits assumed): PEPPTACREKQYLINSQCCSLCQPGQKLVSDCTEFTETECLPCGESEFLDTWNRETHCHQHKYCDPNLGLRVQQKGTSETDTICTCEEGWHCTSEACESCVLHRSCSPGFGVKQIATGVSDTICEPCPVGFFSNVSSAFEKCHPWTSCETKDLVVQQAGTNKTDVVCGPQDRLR

monoclonal antibody CHIR-12.12 registered a Kd of 0.5 nM.

B1: monoclonal antibody CHIR-5.9 (antibody, human IgG1, kappa, V domains shown)
VH: EVQLVQSGAEVKKPGESLKISCKGSGYSFTSYWIGWVRQMPGKGLEWMGIIYPGDSDTRYSPSFQGQVTISADKSISTAYLQWSSLKASDTAMYYCARGTAAGRDYYYYYGMDVWGQGTTVTVSS
VL: AIVMTQPPLSSPVTLGQPASISCRSSQSLVHSDGNTYLNWLQQRPGQPPRLLIYKFFRRLSGVPDRFSGSGAGTDFTLKISRVEAEDVGVYYCMQVTQFPHTFGQGTRLEIKR
B1 had a Kd of 12 nM.
